According to patent US20130149237A1:

Columns and labels:
[1] = biological target: Recombinant human ApoER2 (R&D Systems #3520-AR) (human) (UniProt Q14114); experiment: ELISA on plates coated with 1 µg/ml recombinant human ApoER2; sample: Basolateral/Abluminal medium of the transwell with Empty Filter
[2] = biological target: Recombinant human ApoER2 (R&D Systems #3520-AR) (human) (UniProt Q14114); experiment: ELISA on plates coated with 1 µg/ml recombinant human ApoER2; sample: Apical/Luminal medium of the transwell with Empty Filter
[3] = biological target: Recombinant human ApoER2 (R&D Systems #3520-AR) (human) (UniProt Q14114); experiment: ELISA on plates coated with 1 µg/ml recombinant human ApoER2; sample: Basolateral/Abluminal medium of the transwell with hCMEC/D3 cells, antibody premixed with a 10-fold excess of soluble recombinant human ApoER2
[4] = biological target: Recombinant human ApoER2 (R&D Systems #3520-AR) (human) (UniProt Q14114); experiment: ELISA on plates coated with 1 µg/ml recombinant human ApoER2; sample: Apical/Luminal medium of the transwell with hCMEC/D3 cells
[5] = biological target: Recombinant human ApoER2 (R&D Systems #3520-AR) (human) (UniProt Q14114); experiment: ELISA on plates coated with 1 µg/ml recombinant human ApoER2; sample: Apical/Luminal medium of the transwell with hCMEC/D3 cells, antibody premixed with a 10-fold excess of soluble recombinant human ApoER2 (low value put down to interference in the ELISA)
[6] = biological target: Recombinant human ApoER2 (R&D Systems #3520-AR) (human) (UniProt Q14114); experiment: direct ELISA: wells coated with 1 ug/ml recombinant human ApoER2, antibody titrated, HRP anti-mouse IgG detection
[7] = biological target: Recombinant human ApoER2 (R&D Systems #3520-AR) (human) (UniProt Q14114); experiment: ELISA on plates coated with 1 µg/ml recombinant human ApoER2; sample: Basolateral/Abluminal medium of the transwell with hCMEC/D3 cells

UniProt Q14114, sequence (Q14114 other isoform, or with tags, fused parts or gaps limits assumed): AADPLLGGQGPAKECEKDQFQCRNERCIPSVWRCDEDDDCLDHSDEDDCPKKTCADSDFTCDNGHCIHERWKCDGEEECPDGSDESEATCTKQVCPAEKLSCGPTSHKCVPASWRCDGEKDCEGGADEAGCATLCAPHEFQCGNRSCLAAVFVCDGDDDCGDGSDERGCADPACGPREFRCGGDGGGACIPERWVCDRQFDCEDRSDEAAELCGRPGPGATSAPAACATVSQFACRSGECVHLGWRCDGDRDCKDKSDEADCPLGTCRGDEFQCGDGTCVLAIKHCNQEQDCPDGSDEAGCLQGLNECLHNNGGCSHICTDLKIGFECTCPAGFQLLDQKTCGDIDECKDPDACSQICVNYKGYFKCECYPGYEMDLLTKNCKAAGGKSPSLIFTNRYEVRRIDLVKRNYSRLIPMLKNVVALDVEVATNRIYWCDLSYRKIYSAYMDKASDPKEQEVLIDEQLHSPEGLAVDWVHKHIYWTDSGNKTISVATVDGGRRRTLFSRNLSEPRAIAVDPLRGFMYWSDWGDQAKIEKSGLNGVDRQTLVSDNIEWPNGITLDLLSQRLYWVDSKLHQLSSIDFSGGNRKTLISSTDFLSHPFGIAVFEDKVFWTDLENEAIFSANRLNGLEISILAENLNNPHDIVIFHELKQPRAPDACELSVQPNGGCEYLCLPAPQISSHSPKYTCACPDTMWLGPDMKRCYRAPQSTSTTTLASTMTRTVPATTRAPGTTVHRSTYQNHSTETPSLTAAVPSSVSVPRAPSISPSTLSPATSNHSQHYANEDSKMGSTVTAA

mouse monoclonal anti-human ApoER2 antibody (Abcam ab58216)
Volume Adjusted OD450nm [1]: 0.362 OD450nm | Volume Adjusted OD450nm [2]: 2.75 OD450nm | Volume Adjusted OD450nm [3]: 0.0789 OD450nm | Volume Adjusted OD450nm [4]: 3.57 OD450nm | Volume Adjusted OD450nm [5]: 0.537 OD450nm | IC50 [6]: 0.068 µg/mL | Volume Adjusted OD450nm [7]: 0.138 OD450nm
